{"source": "patent US6030602A", "about": "“Peptide conjugates for transfecting cells” (Hoffmann-La Roche Inc., priority 1996, dated 2000)", "type_in_all_cases": "cell-based", "key": {"[1]": {"system": "suspension cell-line WEHI 231.7", "assay": "Transfection with luciferase plasmid, compound of Example 1b or cationic lipids (Table 4)", "settings": "for Luciferase activity: WEHI 231.7, 6 well plates, 2 μg DNA per well, 48 h, background subtracted, DOTAP/DOSPER at cationic lipid/DNA 5/1 (wt/wt)", "experimental": "a) 1.0 mg of the compound obtained in Example 1b) was dissolved in trifluoroethanol and dried in vacuo. The film was then rehydrated with 1 ml of 10 mM Tris maleate buffer pH 6.\nb) 10 μl of a plasmid DNA solution (1 mg/ml) were diluted with 190 μl of pure, sterile water. 100 μl of the product obtained in paragraph a) were added and gently mixed. The mixture was then added to cells.\nTable 4: Transfection of various cell lines with the compound of Example 1b or cationic lipids. Cells grown in 6 well plates were transfected with a luciferase encoding plasmid (2 μg DNA per well) formulated as described earlier in this Example. Luciferase activity was measured 48 h later. Results are expressed as light units per mg of cell protein. Background was substracted from each measurement.\n*)DOTAP (Avanti Polar Lipids Inc.) or DOSPER (BoehringerMannheim)\ntransfection complexes were prepared according to manufacturer's\ninstructions and were used at a cationic lipid/DNA ratio of 5/1 (wt/wt)."}, "293-EBNA": {"system": "293-EBNA", "assay": "Transfection with luciferase plasmid, compound of Example 1b/DOPE or cationic lipids (Table 2)", "settings": "48 h after transfection, Example 1b mixed with DOPE per Example 2, DOTAP, Lipofectamine per manufacturer", "experimental": "(§1) a) 1.1 mg of the compound obtained in Example 1b) were solubilized in trifluoroethanol and mixed with 1.1 mg of dioleoylphosphatidyl-ethanolamine (DOPE) in chloroform. The mixture was dried in vacuo and the remaining film rehydrated with 1 ml of 30 mM Tris Cl buffer pH 8.5. […]\n(§2) b) Plasmid DNA (10 μg) was diluted in 400 μl of 30 mM Tris Cl buffer pH 8.5. Then […] of the product obtain in paragraph a) were added and gently mixed. The mixture was then added to cells.\n(§3) |Transfection of various cell lines with a mixture of the | compound of Example 1b and DOPE or cationic lipids. Cells were | transfected with a luciferase encoding plasmid formulated as described | earlier in this Example. Luciferase activity was measured 48 h after | transfection. Results are expressed as μ Units per well, | ^2) DOTAP and Lipofectamine transfection complexes were prepared\n(§4) according to the manufacturer's instructions."}, "C2E12": {"system": "C2E12", "assay": "Transfection with luciferase plasmid, compound of Example 1b/DOPE or cationic lipids (Table 2)", "settings": "48 h after transfection, Example 1b mixed with DOPE per Example 2, DOTAP, Lipofectamine per manufacturer", "experimental": "as §1, §2, §3, §4"}, "HeLa": {"system": "HeLa", "assay": "Transfection with luciferase plasmid, compound of Example 1b/DOPE or cationic lipids (Table 2)", "settings": "48 h after transfection, Example 1b mixed with DOPE per Example 2, DOTAP, Lipofectamine per manufacturer", "experimental": "as §1, §2, §3, §4"}, "LM": {"system": "LM", "assay": "Transfection with luciferase plasmid, compound of Example 1b/DOPE or cationic lipids (Table 2)", "settings": "48 h after transfection, Example 1b mixed with DOPE per Example 2, DOTAP, Lipofectamine per manufacturer", "experimental": "as §1, §2, §3, §4"}, "CHO K1": {"system": "CHO K1", "assay": "Transfection with luciferase plasmid, compound of Example 1b/DOPE or cationic lipids (Table 2)", "settings": "48 h after transfection, Example 1b mixed with DOPE per Example 2, DOTAP, Lipofectamine per manufacturer", "experimental": "as §1, §2, §3, §4"}, "LM tk-": {"system": "LM tk-", "assay": "Transfection with luciferase plasmid, compound of Example 1b/DOPE or cationic lipids (Table 2)", "settings": "48 h after transfection, Example 1b mixed with DOPE per Example 2, DOTAP, Lipofectamine per manufacturer", "experimental": "as §1, §2, §3, §4"}, "various cell lines": {"system": "various cell lines", "assay": "Toxicity on cells at high doses of DNA and compound (Table 3 experiment)", "settings": "formulated according to Example 2", "experimental": "a) 1.1 mg of the compound obtained in Example 1b) were solubilized in trifluoroethanol and mixed with 1.1 mg of dioleoylphosphatidyl-ethanolamine (DOPE) in chloroform. The mixture was dried in vacuo and the remaining film rehydrated with 1 ml of 30 mM Tris Cl buffer pH 8.5.\nas §2\n(§5) The effect of DNA dose on the transfection efficiency of various cell lines using the compound obtained in Example 1b formulated according to the example 2 is shown in Table 3."}, "293 EBNA cells": {"system": "293 EBNA cells", "assay": "Transfection of 293 EBNA cells with compound of Example 1b, polyethylenimine or a mixture thereof (Table 5)", "settings": "6 cm dishes, 1 μg DNA per well, 48 h", "experimental": "a) 1.0 mg of the compound obtained in Example 1b) was dissolved in trifluoroethanol and dried in vacuo. The film was then rehydrated with 1 ml of 10 mM Tris maleate buffer pH 6. b) 10 μl of a plasmid DNA solution (1 mg/ml) were diluted with 200 μl of pure, sterile water. 39 μl of the product obtained in paragraph a) and 14 μl of an aqueous polyethylenimine solution (0.45 mg/ml) were added. The mixture was adjusted with water to 300 μl, gently mixed and then added to 292 EBNA cells. […]\nc) 10 μl of a plasmid DNA solution (1 mg/ml) were diluted with 200 μl of pure, sterile water. 52 μl of the product obtained in paragraph a) were added and adjusted with water to 300 μl. The mixture was gently mixed and then added to 292 EBNA cells. […]\nd) 10 μl of a plasmid DNA solution (1 mg/ml) were diluted with 200 μl of pure, sterile water. 56 μl of an aqueous polyethylenimine solution (0.45 mg/ml) were added and adjusted with water to 300 μl. The mixture was gently mixed and then added to 292 EBNA cells.\nTransfection of 293 EBNA cells with the compound of Example\n| 1b, polyethylenimine or a mixture thereof. Cells grown in 6 cm dishes | were transfected with a luciferase encoding plasmid (1 μg DNA per […]\nformulated as described earlier in this Example. Luciferase activity […]\nmeasured 48 h later. Results are expressed as relative light units per"}, "CV-1": {"system": "CV-1", "assay": "Transfection with β-galactosidase plasmid, increasing DNA doses (Table 3)", "settings": "mixture with DOPE, 48 h after transfection", "experimental": "as §1, §2, §5\n(§6) |Transfection of various cell lines with a mixture of the | compound of Example lb and DOPE using increasing DNA doses. Cells\n(§7) were transfected with a β-galactosidase encoding plasmid formulated […]\n(§8) described earlier in this Example. β-galactosidase activity was […]\n(§9) 48 h after transfection. Results are expressed as μ Units per well, […]"}, "HepG2": {"system": "HepG2", "assay": "Transfection with β-galactosidase plasmid, increasing DNA doses (Table 3)", "settings": "mixture with DOPE, 48 h after transfection", "experimental": "as §1, §2, §5, §6, §7, §8, §9"}, "COS-1": {"system": "COS-1", "assay": "Transfection with β-galactosidase plasmid, increasing DNA doses (Table 3)", "settings": "mixture with DOPE, 48 h after transfection", "experimental": "as §1, §2, §5, §6, §7, §8, §9"}, "3T3": {"system": "3T3", "assay": "Transfection with β-galactosidase plasmid, increasing DNA doses (Table 3)", "settings": "mixture with DOPE, 48 h after transfection", "experimental": "as §1, §2, §5, §6, §7, §8, §9"}}, "data": [{"molecule": "CCCCCCCC/C=C\\CCCCCCCC(=O)OCC(COC(=O)CCCCCCC/C=C\\CCCCCCCC)NC(=O)C(CCCNCCCN)NCCCN", "note": "(stereo not drawn) [DOSPER]", "values": [{"measurement": "Luciferase activity", "setting": "[1]", "value": "0 light units per mg of cell pro"}]}, {"molecule": "CCCCCCCC/C=C\\CCCCCCCC(=O)OCC(C[N+](C)(C)C)OC(=O)CCCCCCC/C=C\\CCCCCCCC", "note": "(stereo not drawn) [DOTAP, reference compound]", "values": [{"measurement": "Luciferase activity", "setting": "[1]", "value": "0 light units per mg of cell pro"}, {"measurement": "Luciferase activity", "setting": "293-EBNA", "value": 706718, "unit": "μ Units per well"}, {"measurement": "Luciferase activity", "setting": "C2E12", "value": 156947, "unit": "μ Units per well"}, {"measurement": "Luciferase activity", "setting": "HeLa", "value": 5409, "unit": "μ Units per well"}, {"measurement": "Luciferase activity", "setting": "LM", "value": 68614, "unit": "μ Units per well"}, {"measurement": "Luciferase activity", "setting": "CHO K1", "value": 814133, "unit": "μ Units per well"}, {"measurement": "Luciferase activity", "setting": "LM tk-", "value": 594518, "unit": "μ Units per well"}]}, {"molecule": "compound of formula IIA wherein R^1 and R^2 are oleoyl and R^3 is the residue --(CH2)--CH(NH2)--CO-Ile-Gly-Ala-Val-Leu-Lys-Val-Leu-Thr-Thr-Gly-Leu-Pro-Ala-Leu-Ile-Ser-Trp-Ile-Lys-Arg-Lys-Arg-Gln-Gln-NH2 [Example 1b]", "values": [{"measurement": "Toxicity on cells", "setting": "various cell lines", "value": "without any obvious toxicity"}, {"measurement": "Ability to transfect the suspension cell-line WEHI 231.7", "setting": "[1]; compared with DOTAP and DOSPER, same transfection conditions", "value": "able to transfect the suspension cell-line WEHI 231.7, albeit at a low level"}, {"measurement": "Luciferase activity", "setting": "293 EBNA cells", "value": "3.9 × 10^5 relative light units per dish"}, {"measurement": "Galactosidase activity", "setting": "CV-1; 0.2 μg DNA", "value": 2700, "unit": "μ Units per well"}, {"measurement": "Galactosidase activity", "setting": "CV-1; 0.5 μg DNA", "value": 4440, "unit": "μ Units per well"}, {"measurement": "Galactosidase activity", "setting": "CV-1; 1 μg DNA", "value": 9775, "unit": "μ Units per well"}, {"measurement": "Galactosidase activity", "setting": "CV-1; 2 μg DNA", "value": 20434, "unit": "μ Units per well"}, {"measurement": "Galactosidase activity", "setting": "HepG2; 0.2 μg DNA", "value": 2533, "unit": "μ Units per well"}, {"measurement": "Galactosidase activity", "setting": "HepG2; 0.5 μg DNA", "value": 7944, "unit": "μ Units per well"}, {"measurement": "Galactosidase activity", "setting": "HepG2; 1 μg DNA", "value": 8988, "unit": "μ Units per well"}, {"measurement": "Galactosidase activity", "setting": "HepG2; 2 μg DNA", "value": 13816, "unit": "μ Units per well"}, {"measurement": "Galactosidase activity", "setting": "COS-1; 0.2 μg DNA", "value": 16325, "unit": "μ Units per well"}, {"measurement": "Galactosidase activity", "setting": "COS-1; 0.5 μg DNA", "value": 20545, "unit": "μ Units per well"}, {"measurement": "Galactosidase activity", "setting": "COS-1; 1 μg DNA", "value": 16005, "unit": "μ Units per well"}, {"measurement": "Galactosidase activity", "setting": "COS-1; 2 μg DNA", "value": 15740, "unit": "μ Units per well"}, {"measurement": "Galactosidase activity", "setting": "3T3; 0.2 μg DNA", "value": 318, "unit": "μ Units per well"}, {"measurement": "Galactosidase activity", "setting": "3T3; 0.5 μg DNA", "value": 451, "unit": "μ Units per well"}, {"measurement": "Galactosidase activity", "setting": "3T3; 1 μg DNA", "value": 1032, "unit": "μ Units per well"}, {"measurement": "Galactosidase activity", "setting": "3T3; 2 μg DNA", "value": 1301, "unit": "μ Units per well"}, {"measurement": "Luciferase activity", "setting": "293-EBNA", "value": 2343658, "unit": "μ Units per well"}, {"measurement": "Luciferase activity", "setting": "C2E12", "value": 563827, "unit": "μ Units per well"}, {"measurement": "Luciferase activity", "setting": "HeLa", "value": 33497, "unit": "μ Units per well"}, {"measurement": "Luciferase activity", "setting": "LM", "value": 31685, "unit": "μ Units per well"}, {"measurement": "Luciferase activity", "setting": "CHO K1", "value": 1825019, "unit": "μ Units per well"}, {"measurement": "Luciferase activity", "setting": "LM tk-", "value": 1712739, "unit": "μ Units per well"}]}]}
